B1: EcoP15I modification (Mod) subunit (enzyme, UniProt P12364 1-644, looked up)
chain: MKKETIFSEVETANSKQLAVLKANFPQCFDKNGAFIQEKLLEIIRASEVELSKESYSLNWLGKSYARLLANLPPKTLLAEDKTHNQQEENKNSQHLLIKGDNLEVLKHMVNAYAEKVKMIYIDPPYNTGKDGFVYNDDRKFTPEQLSELAGIDLDEAKRILEFTTKGSSSHSAWLTFIYPRLYIARELMREDGTIFISIDHNEFSQLKLVCDEIFGEQNHVGDLVWKNATDNNPSNIAVEHEYIIVYTKNKEQLISEWKSNISDVKNLLVNIGEEFASKYTGNELQEKYTQWFREHRSELWPLDRYKYIDKDGIYTGSQSVHNPGKEGYRYDIIHPKTKKPCKQPLMGYRFPLDTMDRLLSEEKIIFGDDENKIIELKVYAKDYKQKLSSVIHLDGRVATNELKELFPEMTQPFTNAKTIKLVEDLISFACDGEGIVLDFFAGSGTTAHTVFNLNNKNKTSYQFITVQLDEPTKDKSDAMKHGYNTIFDLTKERLIRASKKNRDQGFKVYQLMPDFRAKDESELTLSNHTFFDDVVLTPEQYDTLLTTWCLYDGSLLTTPIEDVDLGGYKAHLCDGRLYLIAPNFTSEALKALLQKVDSDKDFAPNKVVFYGSNFESAKQMELNEALKSYANKKSIELDLVVRN
B2: EcoP15I restriction (Res) subunit (enzyme, UniProt Q5ZND2 1-970, looked up)
chain: MSKGFTLEKNLPHQKAGVDAVMNVFVSATPHLTDNVAVRLLANPELKLSEQQYYNNIKNVQAFNGIAHSKDNHNAKSNIIDVSMETGTGKTYTYIKTIFDLNKSFGINKFIIIVPTLSIKAGTVNFLKSDALKEHFRDDYKRELRTYVVESQKNAGKNTKSYMPQAIHDFVEASNFNKKYIHVLVINSGMINSKSLTDTYDTGLLDNQFNTPVDALRAVKPFIIIDEPHRFPTGKKTWENIEKFNAQYIIRYGATFSEGYKNLVYRLTAVDAFNDDLVKGIDAYIEDIVGDGNANLKFVKSDGKEATFELNENNNKKSFKLAKGESLSKTHSAIHDLTLDALNKSTAVLSNGIELKIGSSINPYSYDQTLADNMMRKAVKEHFKLEKELLTQRPRIKPLTLFFIDDIEGYRDGNDISGSLKTKFEEYVLAEANELLKTEQDAFYKNYLEKTVTNISSVHGGYFSKDNSDKDDKIEQEINEILHDKELLLSLDNPRRFIFSKWTLREGWDNPNVFQICKLRSSGSTTSKLQEVGRGLRLPVNEYMCRVKDRNFTLKYYVDFTEKDFVDSLVKEVNESSFKERVPSKFTQELKEQIMAQYPELSSRALMNELFNDEIIDDNDNFKDSDAYSRLKSKYPAAFPIGVKPGKIKKATDGKRRTKMRVGKFSELKELWDLINQKAVIEYKINSESEFLSIFKSFMLEETERFTKSGVHTRIDKIYIHNDMAMSKSIVSDDDDFAKLNTMSYREFLDNLSQTIFVKHGTLHKVFCDIKDTINITEYLNIQTIRKIKSGFSKYLLNNSFNKFSLGYNLISGSIHPTKFTNADGNPLGEVLSSDLGVLQDNAKAPLDTYLFEEVFYDSELERRNITDREIQSVVVFSKIPKNSIKIPVAGGYTYSPDFAYVVKTAEGDYLNFIIETKNVDSKDSLRLEEKRKIEHAQALFNQISQSVKVEFRTQFANDDIYQLIKSALP

How the values were obtained:
AUC = target: the molecule itself; assay: AUC
[1] = target: B1; assay: AUC + other: dynamic light scattering

Binder	stoichiometry N (AUC)	stoichiometry N [1]
B1	2	–
B2	–	1 Res per Mod (2:2)

Reference: PMC3807213 (Journal of molecular biology, 2012)
